Reference: patent US20110250670A1, “LIGHT ENERGY-INDUCED STABILITY OF BIOMATERIALS” (University of Calcutta, priority 2010, published 2011)

Experiments:
Format in all cases: physicochemical
[1] = Dithiothreitol induced aggregation of insulin (absorption at 360 nm); details: 0.1 mg/ml, DTT 20 mM, 40° C., He-Ne laser 632.8 nm, 0.63 watts/cm^2
From the text: (§1) In this Example, the effects of light energy on the aggregation of a labile biomolecule in aqueous solution were examined. The device included a heating element and a laser, as depicted in FIG. 2. The laser operated at 632.8 nm, in the red portion of the spectrum, with a power density of 0.63 watts/cm^2. The 180 degree scattering at 360 nm (in terms of OD at 360 nm) was taken to measure the extent of aggregation because it is well-known that this scattering is a measure of the propensity of a protein to form aggregate. Aggregation of proteins of the reference samples was taken as 100% and the aggregation of laser-treated proteins in the test samples was calculated relative to the 100% aggregation of the reference samples.
Dithiothreitol induced aggregation of insulin. Insulin was purchased from ICN and a stock solution of insulin (0.5 mg/ml) was prepared by mixing with 100 mM phosphate buffer of pH 7.2. Disulphide linkages of insulin (0.1 mg/ml) were reduced by dithiothreitol (DTT, 20 mM), which leads aggregation of insulin at 40° C. This aggregation of protein was measured by absorption at 360 nm after heat treatment at 40° C. in a Perkin Elmer spectrophotometer. Aggregation of insulin was measured in the presence and in the absence of laser light. Test samples were irradiated with a He—Ne laser having power density is 0.63 watts/cm^2 and operating at a wavelength 632.8 nm. […]

[2] = Dynamic light scattering of hemoglobin; details: heated at 60° C. for 20 min without red laser light
Protocol: FIG. 4 represents the dynamic light scattering pattern of protein hemoglobin in the presence and absence of red laser light at 60° C. The hydrodynamic diameter of hemoglobin at 25° C. is 5.6 nm. When this protein solution was heated at 60° C. without red laser light for 20 min, the hydrodynamic diameter increases to 4801.0 nm. However, in the presence of red laser light the diameter increases to only 255.0 nm.

[3] = Thermal aggregation of hemoglobin (absorption/scattering at 360 nm); details: 0.1 mg/ml, 60° C., 20 min, He-Ne laser 632.8 nm, 0.63 watts/cm^2
From the text: as §1
Thermal aggregation of hemoglobin. Hemoglobin was purchased from Sigma-Aldrich (St. Louis, Mo.) and a 0.5 mg/ml stock solution was prepared by mixing with 100 mM phosphate buffer solution of pH 7.2. The aggregation of a 0.1 mg/ml hemoglobin solution was observed by measuring the absorption of radiation of 360 nm wavelength with a time duration of 20 min in a Perkin Elmer spectrophotometer at 60° C. Test samples were irradiated with He—Ne laser having power density is 0.63 watts/cm^2 and operating at a wavelength 632.8 nm. A control sample was subjected to identical conditions expect laser irradiation was not performed. […]

[4] = Thermal aggregation of citrate synthase (OD at 360 nm); details: for change in aggregation upon laser exposure: FIG. 5
From the text: as §1
Thermal Aggregation of Citrate Synthase. Citrate synthase was purchased from Sigma-Aldrich and a 0.5 mg/ml stock solution was prepared by mixing with 100 mM phosphate buffer solution of pH 7.2. Citrate synthase was readily converted to its aggregated state from a native state at 45° C. The aggregation profile of the protein (0.1 mg/ml) was measured by measuring optical density (OD) at 360 nm in a Perkin Elmer spectrophotometer in 100 mM phosphate buffer of pH 7.2. Test samples were irradiated with a He—Ne laser having power density is 0.63 Watt/cm^2 and operating at a wavelength 632.8 nm. A control sample was subjected to identical conditions expect that laser irradiation was not performed. The results are shown in FIG. 3 and indicate that irradiation with laser light reduced the formation of protein aggregates by about 40% compared to an non-irradiated control sample.
A comparative study showing the effect of the power of the red laser on the aggregation of citrate synthase was conducted. Thermal aggregation of citrate synthase was determined by measuring absorption of radiation of 360 nm wavelength at 45° C. Aggregation of control samples (in absence of laser treatment) was considered as 100% aggregation while aggregation of the treated protein of the test samples was calculated relative to the 100% aggregation of the control samples. […] Thus, increasing the energy input to the test samples beyond that needed to increase the activation energy for unfolding the protein appears to generate heat energy that increases aggregation. As such, suitable methods for preventing protein aggregation use a low-power red laser.

For insulin, the “reduction of formation of insulin aggregates compared to non-irradiated control” value [1] was “about 10%”.

With hemoglobin the hydrodynamic diameter [2] was 4801.0 nm and the “reduction of formation of hemoglobin aggregates compared to non-irradiated control” value [3] was “about 25%”.

B1: citrate synthase (protein, UniProt P00889 28-464, looked up)
Citrate synthase, …: ASSTNLKDILADLIPKEQARIKTFRQQHGNTVVGQITVDMMYGGMRGMKGLVYETSVLDPDEGIRFRGYSIPECQKMLPKAKGGEEPLPEGLFWLLVTGQIPTEEQVSWLSKEWAKRAALPSHVVTMLDNFPTNLHPMSQLSAAITALNSESNFARAYAEGIHRTKYWELIYEDCMDLIAKLPCVAAKIYRNLYREGSSIGAIDSKLDWSHNFTNMLGYTDAQFTELMRLYLTIHSDHEGGNVSAHTSHLVGSALSDPYLSFAAAMNGLAGPLHGLANQEVLVWLTQLQKEVGKDVSDEKLRDYIWNTLNSGRVVPGYGHAVLRKTDPRYTCQREFALKHLPHDPMFKLVAQLYKIVPNVLLEQGKAKNPWPNVDAHSGVLLQYYGMTEMNYYTVLFGVSRALGVLAQLIWSRALGFPLERPKSMSTDGLIKLVDSK
notes: a beta sheet-rich enzyme which readily aggregates by thermal treatment at 45° C; purchased from Sigma-Aldrich
With B1 the “reduction of formation of protein aggregates compared to non-irradiated control” value ([4]; 0.1 mg/ml, 45° C., He-Ne laser 632.8 nm, 0.63 Watt/cm^2) was “about 40%”, the “aggregation relative to control samples (100%)” value ([4]; 45° C., red laser 15 mW, 1.9 watts/cm^2) was “approximately 145%” and the “aggregation relative to control samples (100%)” value ([4]; 45° C., red laser 632.8 nm, 5 mW, 0.63 watts/cm^2) was 60%. For the same molecule, the “change in aggregation upon laser exposure” value ([4]; high power (15 mW) red laser) was “increase in aggregation” and the “change in aggregation upon laser exposure” value ([4]; low power (5 mW) red laser) was “decrease in the aggregation”.
